B1: TPR t1 (parent)
chain: GACCAAUCUGCCCUCAGAGCUCGAGAACAUCUUCGGAUGCAGAGGAGGCAGGCUUCGGUGGCGCGAUAGCGCCAACGUCCUCAACCUCCAAUGCAUCCCACCACAUGAUGAUGCCUGAAGAGCCUUGGUUUUUUG

Variants of: B1
Experiment: polymerase ribozyme fitness, log enrichment relative to wild type (log ratio); higher = more active; in vitro selection for triplet polymerase activity
Summary of the method: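 A single round of triplicate in vitro selection, including frozen incubation at −7 °C, was applied to PCR-built, transcribed mutant libraries of each subunit of a heterodimeric triplet polymerase ribozyme. Illumina sequencing of input and output libraries retained genotypes with ≥10 input reads and ≥1 read per output. Fitness is the base-2 logarithm of genotype enrichment divided by wild-type enrichment, from inverse-variance-weighted replicate averages.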

Variant | polymerase ribozyme fitness (log ratio)
GACCAAUCUGCUCUCUGAGUUCGAGAACAUCUUCGGAUGCAGAGGAGGCAGGCUUCGGUGGCGCGAUAGCCCCAACGUCCUCAACCUCCAAUGCAUCCCACCACAUGAUGAUGACUGAAGAGCCUUUGUUUUUUG [C12U A16U C20U G71C C114A G127U] | -3.54
GACCAAUCUGCUCUCAGAGCUCGAGAGCAUCUUCGGAUGCAGAGGAGGCAGGCUUCGGUGGCGCGAUAACGCCAACGUCCUCAACCUACAAUGCAUCCCACCACAUGAUGAUGCCUGAAGAGCCGUGGUUUUUUG [C12U A27G G69A C88A U125G] | -3.8
GACCAAUCUGCUCUCAGAGCUCGAGAACAUCUUCGGAUGCAGAGGAGGCUGGCUUGGGUGGCGCGAUAGCGCCAACGUCCUCAACCUCCAAUGCAUCCCACCACAUGAUGAUGCCUGAAGAGCCUUGGUUUUUUG [C12U A50U C56G] | -1.24
GACCAAUCUGCUCUCAGAGCUCGAGAACAUCUUCGGAUGCAGAGGUGGCAUGCUUCGGUGGCGCGAUAUCGCCUACGUCCUCAACCUCCAAUGCAUCCCACCACAUGAUGAUGCCUGAAGAGCCUUGGUUUUUUG [C12U A46U G51U G69U A74U] | -3.04
GACCAAUCUGCGCCCAGAGCUCGAGAACAUCUUCGGAUGCAGAGAAGGCAGGCUUCGGUGGCGCGAUGGCGCCAACGUCCUCAACCUCCAAUGCAUCCCACCACAAGAUGAUGCCUGAAGAGCCUUGGUUUUUUG [C12G U14C G45A A68G U106A] | -4.06
GACCAAUCUGCUCUCCGAGCUCGAGAACAUCUUCGGAUGCAGAGGAGGCAGGCUUCGGAGGCGCGAUAGCGCCAACGUCCUCAACCUCCAACGCAUCCCACCACAUGAUGAUGCCUGAAGAGCAUUGGUUUUUUG [C12U A16C U59A U92C C124A] | 0.146
GACCAAUCUGCUCUCAGAGCUCGAGAACUUCUUCGGAUGCAGAGGAGGCAGGCUUGGGUGGCGCGAUAGCGCCAACGUCCUCAACCGCCAAUGCAUCCCACCACAUGAUGAUGCCUGAAGAGCCUUGGUUUUUUG [C12U A29U C56G U87G] | -2.63
GACCAAUCUGCUCUCAGAGCUCGAGAACAUCUUCGGAUGCAGAGGGGGCAGGCUUAGGUGGCGCGAUAGCGCCAACGUCCUCAACCUCCAAUGCAUCCCACCACUUGAUGAUGCCUGAAGAGCCUUGGUUUUUUG [C12U A46G C56A A105U] | -1.73
GACCAAUCUGCGCUCAGAGCUCGAGAACAUCUUCGGAUGCAGAGGAGGCAGGCUUCGGGGGCGCGAUAGCGCCAACGUCCUCAACCUCCGAUGCAUCCCACCACAUGAUGAUACCUGAAGAGCCUUGGUUUUUUG [C12G U59G A90G G113A] | -2.53
GACCAAUCUGCGCUCAGAGCACGAGAACAUCUUCGGAUGCAGAGGAGGCAGGCUUCGGUGGCGCGAUAGCGCCAACCUCCUCAUCCUCCAAUGCAUCCCACCACAUGAUGAUGCCUGAAGAGCCUUGGUUUUUUG [C12G U21A G77C A84U] | -1.73
GACCAAUCUGCGCUCAGAGCUCGAGAACAUCUGCGGAUGCAGAGGAGGCAGGCUUCGGUGGCGCGAUAGCGCCAAAGUCCUCAACCUCCAAUGCAUCCCCCCACAUGAUGAUGCCUGAAGAGGCUUGGUUUUUUG [C12G U33G C76A A100C C123G] | -5.88
GACCAAUCUGCUCUCAGAGCUCGAGAACAUCUUCGGAUGCAGAGGAGGCUGGCUUCGGGGGCGCGAUAGCGCCAACGUCCUCAACCUCCAAUGCAUCCCACCACAUGAUGAUGCCUGAUGAGCCUUGGUUUUUUG [C12U A50U U59G A119U] | -0.98
GACCAAUCUGCUCUCAGAGCUCGAGGACAUCUUCGGAUGCAGAGGAGGCAGGCUUUGGUGGCGCGAUAUCGCCAACGUCCUCAACCUCCAAUGCAUCCCACCACAUGAUGAUGCCUAAAGAGCCGUGGUUUUUUG [C12U A26G C56U G69U G117A U125G] | -4.97
GACCAAUCUGCUCUCAGAGCUCGAGAACAUCUUCGGAUGCAGAGGGGGCAGGCUUCGGUGGAGCGACAGCGCCAACGUCCUCAACCUCCAAUGCAUCCCACCACAUGAUGAAGCCUGAAGAGCCUUGGGUUUUUG [C12U A46G C62A U67C U112A U129G] | -4.48
GACCAAUCUGCUCUCAGAGCUCGAGAACAUCUUCGGAUGCAGAGGUGGCAGGCUUCGGUGGCGCGAUAGCGCCAACGUCCUCAACCUCCAAUGCAUCCCACCACAUGAUGAUGCCUGAAGAGCCUUGGUUUUUUG [C12U A46U] | -0.688
GACCAAUCUGCUCUCAGCGCUCGAGAACAUCUUCGGAUGCAGAGGAGGCAGGCUUCGGUGGUGCGAUAGCGCCAACGUCCUCAACCUCCAAUGCAUCCCACCACAUGAUGAUGCCUGAAGAGCCUUGGUUUUUUG [C12U A18C C62U] | -2.39
GACCAAUCUGCUCUCAGAGCUCGAGAACAUCUUCGGAUGCAGAGGAGGCGGGCUUAGGUGGCGCGAUAGCGCCAACGUCCUCAAGCUCCAAUGCAUCCCACCACAUGAUGAUGCCUGAAGAGCCUUGGUUUUUUG [C12U A50G C56A C85G] | -1.73
GACCAAUCUGCUCUCAGAGCUCGAGAACGUCUUCGGAUGCAGAGGAGGCAGGCUUCGGUGGCGCGAUAGCGCCAACGUCCUCAACCUCCAACGAAUCCCACCACAUGAUGAUGCCUGAAGAGCCUUGGUUUUUUG [C12U A29G U92C C94A] | -3.95
GACCAAUCUGCUCUCAGAGCUCGAGAACAUCUUCGGAUGCAGAGGAGGCAGGCUUCGGUGGCGCGAUAGCGCCAGCGUCCUCAACCUCCAAAGCAUCCCACCACAUGAUGAUGCCUGAAGAGCCUUGGUUUUUUG [C12U A75G U92A] | -2.45
GACCAAUCUGCUCUCAGAGCUCGAGAACAUCUUCGGAUGCAGAGGAGGCAGGCUUCGGUGGCGCGAUGGCGCCAACGUCCUCAACCUCCAAUGCAUCCCACCACAUGAUGAUGCCUGAAGAGCCUUGGUUUUUUG [C12U A68G] | -1.94
GACCAAUCUGCUCUCAGAGCUCGAGAACAUCUUCGGAUGCAGAGGUGGCAUGCUUCGGUAGCGCGAUAGCGCCAACGUCCUCAACCUCCAAUGCAUCCCACCACAUGAUGAUGCCUGAAGAGCCUUGGUUUUUUG [C12U A46U G51U G60A] | -3.42

Variant | polymerase ribozyme fitness (log ratio)
GACCAAUCUGCUCUCAGAGCUCGAGAACAUCUUCGGAUGCAGAGGCGGCAGGGUUCGGUGGCGCGAUAGCGUGAACGUCCUCACCCUCCAAUGCCUCCCACCACAUGAUGAUGCCUGAAGAGCCUUGGUUUUUUG [C12U A46C C53G C72U C73G A84C A95C] | -5.01
GACCAAUCUGCGCUCAGAGCUCGAGAACAUCUUCGGAUGCAGAGGAGGCAGGCUUCGGUGGCGCGAUAGCGCCAACGUCCUCAACCUCCAAUGCAACCCACCACAUGAUGAUGCCUGAAGAGCCUUGGUUUUUUG [C12G U96A] | -0.352
GACCAAUCUGCGCCCAGAGCUCGAGAACAUCUUCGGAUGCAGAGGAGGCAGGCUUCGGGGGCGCGAUAGCGCGAACGUCCUCAACCUCCAAUGCAUCCCACCACAUGAUGAUGCCUGAAGAGCCUUGGUUUUUUG [C12G U14C U59G C73G] | -2.57
GACCAAUCUGCUCUCAGAGCUCGAGAACAUCUUCGGAUGCAGAGGAGGCAGGCUUCGGUGGCGCGAUAGCGCCAACGUCCUCUACCUCCAAUGCAUCCCACCACAUGAUGAUGCCUGAAGAGCCUUGGUUUUUUG [C12U A83U] | 0.364
GACCAAUCUGCUCUCUGAGCUGGAGAACAUCUUCGGAGGCAGAGGAGGCAGCCUUCGGUGGCGCGAUAGCGCCAACGUCCUCAACCUCCAAUGCAUCCCACCACAUGAUGUUGCCUGAAGAGCCUUGGUUUUUUG [C12U A16U C22G U38G G52C A111U] | -3.72
GACCAAUCUGCUCUCGGAGCUCGAGAACAUCUUCGGAUGCAGAGGAGGCAGGCUUCGGUGGCGCGAUAGCGCCAACGUCCUCAACCUCCAAUGCAUCCCACCACAAGAUGAUGCCUGAAGAGCCUUGGUUUUUUG [C12U A16G U106A] | 0.278
GACCAAUCUGCUCUCAGAGCUCGAGAACAUCUUCGGAUGCAGAGGAGGCAGGCUUCGGUGGCGCGAUAGCGCCAACGUCCUCCACCUCCAAUACAUCCCACCACAUGAUGAUGCCUGAAGAGCCUUGGUUUUUUG [C12U A83C G93A] | -0.192
GACCAAUCUGCUCUCCGAGCUCGAGAACAUCUUCGGAUGCAUAGGAGGCAGGCUUCGGUGGCGCGAUAGCGCCAACGACCUCAACCUCCAAUGCAUCCCACCACAUGAUGAUGCCUGAAGCGCCUUGGUUUUUUG [C12U A16C G42U U78A A121C] | -0.175
GACCAAUCUGCGCUCAGAGCUCGAGAACAUCUUCGGAUGCAGAGGAGGCAGGCUUCGGUGGCGCGAUAGCGCCAACGACCUCAACCUCCAAUACAUCCCACCACAUGAUGAUGCCUGAAGAGCGUUGGUUUUUUG [C12G U78A G93A C124G] | 0.89
GACCAAUCUGCUCUCAGUGCUCGAGAACAUCUUCGGAUGUAGAGGAGGCAGGCUUCGGUGGCGCGAUAGCGCCAACGUCCUCAACCUCCAAUGCAUCCCACCACACGAUGAUGGCUGAAGAGCCUUGGUUUUUUG [C12U A18U C40U U106C C114G] | -2.23
GACCAAUCUGCUCUCUGAGCUCGAGAACAUCUUCGGAUGCAGAGGAGGCAGGCUUCGGUGGCGCGCUAGCGCCAACGUCCUCAACCUCCAAUGCAUCCCACCACCUGAUGAUGCCUGAAGAGCGUUGGUUUUUUG [C12U A16U A66C A105C C124G] | -5.31
GACCAAUCUGCUCUCAGAGCUCGAGAACAUCUUCGGAUGCUGAGGAGGCAGGCUUCGGUGGCGCGAUAGCGCCAACGUCCUCAACCUCCAAUGCAUCCCACCACAUGAUGAUGCCUGAAGAGCCUUGGUUUUUUG [C12U A41U] | -0.786
GACCAAUCUGCUCUCCGAGCUCGAGAACAUCUUCGGAUGCAGAGGAGGCAGGCUUCGGUGGCGCGAUAGCGCAAACGUCCUCCACCUCCAAUGCAUCCCACCACAUGAUGAUGCCUGAAGAGCCUUGGUUUUUUG [C12U A16C C73A A83C] | 0.284
GACCAAUCUGCUCUCAGAGCUCGAGGACAUCUUCGGAUGCAGAGAAGGCAGGCUUCGGUGGCGCGAUAGCGCCAACGUCCUCAUCCUCCAAUGCAUCCCACCACAUGAUGAUGCCUGAAGAGCCUUGGUUUCUUG [C12U A26G G45A A84U U132C] | -3.75
GACCAAUCUGCUCUCAGAGCUCGAGAACAUCUUCGGAUGCCGAGGAGGCAGGCUUCGGUCGCGCGAUAGCGCCAACGUCCUCAACCUCCAAUGCAUCCCACCACAUGAUGAUGCCUGAAGAGCCUUGCUUUUUUG [C12U A41C G60C G128C] | -3.6
GACCAAUCUGCUCUCAGAGCUCGAGCACAUCUUCGGAUGCAGAGCAGGCAGGCUUCGGUGCCGCGAUAGCGCCACCGUCCUAAACCUCCAAUGCAUCCCACCACAUGAUGAUGCCUGAAGAGCCUUGGUUUUUUG [C12U A26C G45C G61C A75C C82A] | -6.28
GACCAAUCUGCUCUCAGGGCUCGAGAACAUCUUCGGAUGCUGAGGACGCAGGCUUCGGUGGCGCGAUAGCGCCAACGUCCUCAACCUCCAAUGCAUCCCACCACAUGAGGAUGCCUGAAGAGCGUUGGUUUUUUG [C12U A18G A41U G47C U109G C124G] | -2.39
GACCAAUCUGCUCUCAGAGCUCGAGAACAUCUUCGGAUGCAGAGGCGGCAGGCUUCGGUGGCGCGAUAGCGCCAUCGUCCUCAACCUCCAAUGCAUCCCACCACAUGAUGAUGCCUGAAGAGCCUUGGUUUUUUG [C12U A46C A75U] | -0.187
GACCAAUCUGCUCUCAGCGCUCGAGAACAUCUUCGGAUGCAGAGGAGGCAGUCUUCGGUGGCGCGAUAGCGCCAACGUACUCAACCUCCAAUGCAUCCCACCACAUGAUGAUGCCUGAAGAGCCUUCGUUUUUUG [C12U A18C G52U C79A G127C] | -2.61
GACCAAUCUGCUCUCAGUGCUCGAGAACAUCUUCGGAUGCAGAGGAGGCAGGCUUCGGUGGCGCGAUAGCGCCAACGUCCUCAACCUCCAAUGCAUCCCACCACAUGUUGAUGUCUGAAGCGCCUUGGCUUUUUG [C12U A18U A108U C114U A121C U129C] | -6.88
GACCAAUCUGCUCUCAGAGCUCGAGAACAUCUUCGGAUGCAGAGGUGGCAGGCUUCGGUGGCGCGAUAGCGCCAACGUCCUCAACCUCCAAUGCAUCCCACCACAUGAUGAUGCCUGAAGCGCCUUGGUUUUUUG [C12U A46U A121C] | -0.0492
